In patent publication US20240189352A1 (published 2024):

How the values were obtained:
Assay in all cases: cytokine release
[1] = molecular target: T1, RAC2 P29L peptide on HLA-A*02:01 (human)
T1 peptide: FLGEYIPTV

[2] = molecular target: T2, RAC1 P29S peptide on HLA-A*02:01 (human)
T2 peptide: FSGEYIPTV

[3] = molecular target: T3, RAC2 P29L, position 1 replaced by alanine peptide on HLA-A*02:01 (human)
T3 peptide: ALGEYIPTV

[4] = molecular target: T4, RAC2 P29L, position 2 replaced by alanine peptide on HLA-A*02:01 (human)
T4 peptide: FAGEYIPTV

[5] = molecular target: T5, RAC2 P29L, position 3 replaced by alanine peptide on HLA-A*02:01 (human)
T5 peptide: FLAEYIPTV

[6] = molecular target: T6, RAC2 P29L, position 4 replaced by alanine peptide on HLA-A*02:01 (human)
T6 peptide: FLGAYIPTV

[7] = molecular target: T7, RAC2 P29L, position 6 replaced by alanine peptide on HLA-A*02:01 (human)
T7 peptide: FLGEYAPTV

Measured: binding result

B1: RAC2-T001 (TCR, V domains shown)
Valpha: GENVEQHPSTLSVQEGDSAVIKCTYSDSASNYFPWYKQELGKGPQLIIDIRSNVGEKKDQRIAVTLNKTAKHFSLHITETQPEDSAVYFCAASMGNAGNMLTFGGGTRLMVKP
Vbeta: EPEVTQTPSHQVTQMGQEVILRCVPISNHLYFYWYRQILGQKVEFLVSFYNNEISEKSEIFDDQFSVERPDGSNFTLKIRSTKLEDSAMYFCASSETSGASYEQYFGPGTRLTVT
not listed: [7]
recognises: all other assays above

B2: RAC2-T002 (TCR, V domains shown)
Valpha: AQSVTQLGSHVSVSEGALVLLRCNYSSSVPPYLFWYVQYPNQGLQLLLKYTTGATLVKGINGFEAEFKKSETSFHLTKPSAHMSDAAEYFCAVGANNLFFGTGTRLTVIP
Vbeta: EPEVTQTPSHQVTQMGQEVILRCVPISNHLYFYWYRQILGQKVEFLVSFYNNEISEKSEIFDDQFSVERPDGSNFTLKIRSTKLEDSAMYFCASSEWRGSSYNEQFFGPGTRLTVL
not listed: [6]
recognises: all other assays above
